{
  "source": "patent US5891679A",
  "about": "“TNF-alpha muteins and a process for preparing them” (priority 1993, dated 1999)",
  "key": {"[1]": {"test_system": "Trypanosoma brucei brucei", "assay": "In vitro trypanocidal assay, T. brucei brucei", "format": "cell-based", "details": "T. brucei brucei, 5 h, data not shown", "procedure": "(§1) The Trypanosoma brucei brucei AnTat 1.1 (EATRO 1125) pleomorphic bloodstream form was kindly provided to us by Dr. N. Van Meirvenne of the Institute for Tropical Medecine, Antwerp, Belgium, and the Trypanosoma brucei rhodesiense Trp 11 pleomorphic bloodstream form was kindly provided to us by Dr. E. Bajyana Songa (Dept. Molecular Biology, Free University of Brussels, Belgium)\n(§2) After 5 h of incubation, the number of live (=moving) parasites was assessed (counting chamber) and compared the control wells in which only incubation medium was added to the trypanosomes. […] All treatments were done in quadruplicate and all reported in vitro trypanolysis experiments were repeated at least 3 times."}, "[2]": {"test_system": "Trypanosoma brucei rhodesiense", "assay": "In vitro trypanocidal assay, T. brucei rhodesiense", "format": "cell-based", "details": "5 h, data not shown", "procedure": "as §1, §2"}},
  "data": [
    {"molecule": "mouse interleukin 1α: mouse interleukin 1α (protein, UniProt P01582 115-270, looked up) Interleukin-1 alpha: SAPYTYQSDLRYKLMKLVRQKFVMNDSLNQTIYQDVDKHYLSTTWLNDLQQEVKFDMYAYSSGGDDSKYPVTLKISDSQLFVSAQGEDQPVLLKELPETPKLITGSETDLIFFWKSINSKNYFTSAAYPELFIATKEQSRVHLARGLPSMTDFQIS", "values": [
      {"measurement": "mortality of trypanosomes", "setting": "[1]", "result": "do not cause any mortality"},
      {"measurement": "mortality of trypanosomes", "setting": "[2]", "result": "do not cause any mortality"}
    ]},
    {"molecule": "mouse interleukin 1β: mouse interleukin 1β (protein, UniProt P10749 118-269, looked up) Interleukin-1 beta: VPIRQLHYRLRDEQQKSLVLSDPYELKALHLNGQNINQQVIFSMSFVQGEPSNDKIPVALGLKGKNLYLSCVMKDGTPTLQLESVDPKQYPKKKMEKRFVFNKIEVKSKVEFESAEFPNWYISTSQAEHKPVFLGNNSGQDIIDFTMESVSS", "values": [
      {"measurement": "mortality of trypanosomes", "setting": "[1]", "result": "do not cause any mortality"},
      {"measurement": "mortality of trypanosomes", "setting": "[2]", "result": "do not cause any mortality"}
    ]},
    {"molecule": "hTNF-β: Human recombinant TNF-β (lymphotoxin) (protein, UniProt P01374 35-205, looked up) Lymphotoxin-alpha: LPGVGLTPSAAQTARQHPKMHLAHSTLKPAAHLIGDPSKQNSLLWRANTDRAFLQDGFSLSNNSLLVPTSGIYFVYSQVVFSGKAYSPKATSSPLYLAHEVQLFSSQYPFHVPLLSSQKMVYPGLQEPWLHSMYHGAAFQLTQGDQLSTHTDGIPHLVLSPSTVFFGAFAL", "values": [
      {"measurement": "mortality of trypanosomes", "setting": "[1]", "result": "do not cause any mortality"},
      {"measurement": "mortality of trypanosomes", "setting": "[2]", "result": "do not cause any mortality"}
    ]}
  ]
}
